Experiment [1] addresses ELAM-Rg, soluble ELAM-1-IgG1 chimera (ELAM-1 extracellular domain fused to hinge, CH2 and CH3 domains of human IgG1) (human) (UniProt P16581). In words: inhibition of adhesion of myeloid HL60 cells to immobilized ELAM-1, fusion protein at about 50 µg/ml.
Experiment [2] shares this target. The experiment can be described thus: inhibition of adhesion of human T lymphocytes to immobilized ELAM-1, fusion protein at about 50 µg/ml.

A value given as a limit tells only on which side of the number the result lay.

Chain of ELAM-Rg, soluble ELAM-1-IgG1 chimera (ELAM-1 extracellular domain fused to hinge, CH2 and CH3 domains of human IgG1) (human) (P16581 22-556 limits assumed, stated change not applied): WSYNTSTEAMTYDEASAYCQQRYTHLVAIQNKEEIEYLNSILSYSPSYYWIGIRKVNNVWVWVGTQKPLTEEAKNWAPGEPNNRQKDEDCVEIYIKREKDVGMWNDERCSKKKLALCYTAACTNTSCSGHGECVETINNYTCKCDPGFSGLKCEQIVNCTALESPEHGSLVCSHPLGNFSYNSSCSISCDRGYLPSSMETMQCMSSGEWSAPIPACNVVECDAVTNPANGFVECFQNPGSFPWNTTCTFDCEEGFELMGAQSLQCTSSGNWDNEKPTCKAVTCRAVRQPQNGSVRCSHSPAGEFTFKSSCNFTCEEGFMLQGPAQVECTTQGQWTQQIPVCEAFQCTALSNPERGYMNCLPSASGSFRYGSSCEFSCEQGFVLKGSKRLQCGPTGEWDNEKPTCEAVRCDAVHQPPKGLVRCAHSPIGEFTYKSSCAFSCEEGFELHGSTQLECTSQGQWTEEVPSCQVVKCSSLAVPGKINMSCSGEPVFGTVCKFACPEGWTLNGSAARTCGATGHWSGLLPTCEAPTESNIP

With “α1-AGP-IgG1 fusion protein (α1-AGP-Hinge-CH2-CH3) produced in COS cells (Fc fusion)”, the inhibition of adhesion in experiment [1] and in experiment [2] was greater than 50% each time.

The values above are taken from patent publication US6613746.
